T1: AtbZIP63 (Arabidopsis thaliana, UniProt B9DGI8 1-314)
T1 sequence: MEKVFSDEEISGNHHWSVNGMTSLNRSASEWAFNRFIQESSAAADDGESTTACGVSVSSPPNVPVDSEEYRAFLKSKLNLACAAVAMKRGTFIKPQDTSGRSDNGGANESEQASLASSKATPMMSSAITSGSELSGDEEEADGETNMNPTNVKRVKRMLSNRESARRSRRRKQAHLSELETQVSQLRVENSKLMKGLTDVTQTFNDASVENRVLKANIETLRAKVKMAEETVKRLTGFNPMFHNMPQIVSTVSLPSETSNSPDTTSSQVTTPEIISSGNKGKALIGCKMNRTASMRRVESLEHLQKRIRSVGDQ

B1: 195 (dsDNA)
DNA 1: AAAAAATGGTCGTCGTACTCGTGGTCAAAA
DNA 2: TTTTGACCACGAGTACGACGACCATTTTTT
B2: 36 (dsDNA)
DNA 1: AAAAAATTTGGTCTTCGTCCTCGCTTAAAA
DNA 2: TTTTAAGCGAGGACGAAGACCAAATTTTTT
B3: 222 (dsDNA)
DNA 1: AAAAAAGGCGGTCGTAGTTGTGGGAGAAAA
DNA 2: TTTTCTCCCACAACTACGACCGCCTTTTTT
B4: 92 (dsDNA)
DNA 1: AAAAAAAGTCTGCGGCTGCAGGGCGGAAAA
DNA 2: TTTTCCGCCCTGCAGCCGCAGACTTTTTTT
B5: 57 (dsDNA)
DNA 1: AAAAAAAATTAGTCTCTTCGTCTCCCAAAA
DNA 2: TTTTGGGAGACGAAGAGACTAATTTTTTTT
B6: 287 (dsDNA)
DNA 1: AAAAAACACGCCATTGACACTGGTAAAAAA
DNA 2: TTTTTTACCAGTGTCAATGGCGTGTTTTTT
B7: 91 (dsDNA)
DNA 1: AAAAAAAGTGGCCGCTAGTCAACTCAAAAA
DNA 2: TTTTTGAGTTGACTAGCGGCCACTTTTTTT
B8: 124 (dsDNA)
DNA 1: AAAAAAACTCACGGCGTCACTATGGTAAAA
DNA 2: TTTTACCATAGTGACGCCGTGAGTTTTTTT
B9: 276 (dsDNA)
DNA 1: AAAAAACATCGCTGTCGTTGACGTTGAAAA
DNA 2: TTTTCAACGTCAACGACAGCGATGTTTTTT
B10: 117 (dsDNA)
DNA 1: AAAAAAATCAGCCTGACTCTGGGCGTAAAA
DNA 2: TTTTACGCCCAGAGTCAGGCTGATTTTTTT
B11: 259 (dsDNA)
DNA 1: AAAAAAGTAGGTGCTGATGCTGGCCGAAAA
DNA 2: TTTTCGGCCAGCATCAGCACCTACTTTTTT
B12: 260 (dsDNA)
DNA 1: AAAAAAGTATAACGTGTTGTTGACCGAAAA
DNA 2: TTTTCGGTCAACAACACGTTATACTTTTTT
B13: 294 (dsDNA)
DNA 1: AAAAAACGTGCGCGTGCATGTCATCGAAAA
DNA 2: TTTTCGATGACATGCACGCGCACGTTTTTT
B14: 137 (dsDNA)
DNA 1: AAAAAAACTCTAGGTCAATATTATTCAAAA
DNA 2: TTTTGAATAATATTGACCTAGAGTTTTTTT
B15: 43 (dsDNA)
DNA 1: AAAAAAAGGTCATTGCTGCTGGTGTTAAAA
DNA 2: TTTTAACACCAGCAGCAATGACCTTTTTTT
B16: 313 (dsDNA)
DNA 1: AAAAAATCGCGAACGTACGTCCGCGGAAAA
DNA 2: TTTTCCGCGGACGTACGTTCGCGATTTTTT
B17: 233 (dsDNA)
DNA 1: AAAAAAGGTCCAGTCCACGTCATCAGAAAA
DNA 2: TTTTCTGATGACGTGGACTGGACCTTTTTT
B18: 271 (dsDNA)
DNA 1: AAAAAACGTTGAACCTGGGCCTCAACAAAA
DNA 2: TTTTGTTGAGGCCCAGGTTCAACGTTTTTT
B19: 108 (dsDNA)
DNA 1: AAAAAAGGCGTCTGACTGTAACTCGTAAAA
DNA 2: TTTTACGAGTTACAGTCAGACGCCTTTTTT
B20: 44 (dsDNA)
DNA 1: AAAAAAGTACATGCGTAGATAATGTTAAAA
DNA 2: TTTTAACATTATCTACGCATGTACTTTTTT
B21: 97 (dsDNA)
DNA 1: AAAAAAAGTTTGACCTTGGCGTTCGTAAAA
DNA 2: TTTTACGAACGCCAAGGTCAAACTTTTTTT
B22: 270 (dsDNA)
DNA 1: AAAAAACATGTCGCACCTGTACTAACAAAA
DNA 2: TTTTGTTAGTACAGGTGCGACATGTTTTTT
B23: 239 (dsDNA)
DNA 1: AAAAAAGTCGTTACACGTATGCGTGCAAAA
DNA 2: TTTTGCACGCATACGTGTAACGACTTTTTT
B24: 101 (dsDNA)
DNA 1: AAAAAAGTCTAAGGACTTATAGCTGTAAAA
DNA 2: TTTTACAGCTATAAGTCCTTAGACTTTTTT
B25: 153 (dsDNA)
DNA 1: AAAAAATGTATTCGTGTCCACTCCATAAAA
DNA 2: TTTTATGGAGTGGACACGAATACATTTTTT
B26: 223 (dsDNA)
DNA 1: AAAAAAGGCCACGGTAACCCCTTTTGAAAA
DNA 2: TTTTCAAAAGGGGTTACCGTGGCCTTTTTT
B27: 109 (dsDNA)
DNA 1: AAAAAATACGTCTACGTGGTTGTCGTAAAA
DNA 2: TTTTACGACAACCACGTAGACGTATTTTTT
B28: 64 (dsDNA)
DNA 1: AAAAAATCGGGCCCCGTTAGCACTCTAAAA
DNA 2: TTTTAGAGTGCTAACGGGGCCCGATTTTTT
B29: 110 (dsDNA)
DNA 1: AAAAAAGCGTAAGCCTTGACAGTCGTAAAA
DNA 2: TTTTACGACTGTCAAGGCTTACGCTTTTTT
B30: 88 (dsDNA)
DNA 1: AAAAAATCAACCATTATGGTATTACTAAAA
DNA 2: TTTTAGTAATACCATAATGGTTGATTTTTT
B31: 173 (dsDNA)
DNA 1: AAAAAATACATTTGACTTTGGGTTTCAAAA
DNA 2: TTTTGAAACCCAAAGTCAAATGTATTTTTT
B32: 31 (dsDNA)
DNA 1: AAAAAATCCACGACTCAGCAGCTCTTAAAA
DNA 2: TTTTAAGAGCTGCTGAGTCGTGGATTTTTT
B33: 54 (dsDNA)
DNA 1: AAAAAAGTCCGCCCTTAATTCATATTAAAA
DNA 2: TTTTAATATGAATTAAGGGCGGACTTTTTT
B34: 83 (dsDNA)
DNA 1: AAAAAATATGTAGCTGCCGTTACGCTAAAA
DNA 2: TTTTAGCGTAACGGCAGCTACATATTTTTT

Columns and labels:
[1] = target: WRKY33 cDBD (Arabidopsis thaliana, UniProt Q8S8P5 345-449); experiment: DPI-ELISA; DPI-ELISA, streptavidin 384-well plate, 1-2 pmol biotinylated dsDNA per well, crude native E. coli extract, anti-His detection; buffer as in Brand et al. [46],; high values mean tight binding; settings: tags: C-terminal His (pET-DEST42); label: 5' biotin on forward strand
[2] = target: T1, AtbZIP63; experiment: as above; settings: tags: C-terminal His (pET-DEST42); chain copies: 2; label: 5' biotin on forward strand

Sequence of WRKY33 cDBD (Q8S8P5 other isoform, or with tags, fused parts or gaps): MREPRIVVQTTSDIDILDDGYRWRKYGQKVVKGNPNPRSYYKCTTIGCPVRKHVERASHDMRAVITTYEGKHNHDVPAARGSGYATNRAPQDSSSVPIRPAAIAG

Binder | binding signal [1] | binding signal [2]
B1 | 2.34 relative normalized absorbance | 
B2 | 2.17 relative normalized absorbance | 
B3 | 2.35 relative normalized absorbance | 
B4 | 2.36 relative normalized absorbance | 
B5 | 2.01 relative normalized absorbance | 
B6 |  | 1.99 relative normalized absorbance
B7 | 2.25 relative normalized absorbance | 
B8 |  | 2.46 relative normalized absorbance
B9 | 2.34 relative normalized absorbance | 2.02 relative normalized absorbance
B10 | 2.01 relative normalized absorbance | 
B11 |  | 1.92 relative normalized absorbance
B12 | 2.33 relative normalized absorbance | 
B13 |  | 1.97 relative normalized absorbance
B14 | 2.3 relative normalized absorbance | 
B15 | 2.19 relative normalized absorbance | 
B16 |  | 2.62 relative normalized absorbance
B17 | 2.34 relative normalized absorbance | 2.57 relative normalized absorbance

Binder | binding signal [1] | binding signal [2]
B18 | 2.33 relative normalized absorbance | 
B19 | 2.35 relative normalized absorbance | 2.54 relative normalized absorbance
B20 |  | 2.11 relative normalized absorbance
B21 | 2.28 relative normalized absorbance | 
B22 |  | 1.93 relative normalized absorbance
B23 | 2.32 relative normalized absorbance | 2.62 relative normalized absorbance
B24 | 2.37 relative normalized absorbance | 
B25 |  | 1.89 relative normalized absorbance
B26 |  | 2.06 relative normalized absorbance
B27 |  | 2.98 relative normalized absorbance
B28 |  | 2.04 relative normalized absorbance
B29 |  | 1.94 relative normalized absorbance
B30 | 2.02 relative normalized absorbance | 
B31 | 2.31 relative normalized absorbance | 
B32 |  | 2.32 relative normalized absorbance
B33 | 2.35 relative normalized absorbance | 
B34 | 2.34 relative normalized absorbance | 

From paper PMC3795721, “Screening for Protein-DNA Interactions by Automatable DNA-Protein Interaction ELISA”
